# What was measured:
# [1] = biological target: T1, human CTLA4 expressed on Jurkat T cells (human, UniProt P16410 36-223); experiment: flow cytometry on Jurkat T cells expressing hCTLA4
# T1 construct: whole, on cells; also called hCTLA4; cell surface-expressed hCTLA4
# Excerpt: After washing, the surface-bound anti-hCTLA4 antibodies were detected with a polyclonal anti-hlgG (Fc-specific) antibody labeled with fluorescein isothiocyanate (FITC)(anti-hlgG-FITC). Binding of anti-hCTLA4 antibodies were detected by flow cytometric analysis. The results were reported a geometric mean fluorescence intensity (MFI) using FlowJo software (FLOWJO, L.L.C., Ashland, Oreg., USA).
# [2] = biological target: T2, CTLA4-ECD_Fc, soluble hCTLA4 comprising the extracellular domain of hCTLA4 fused to an Fc fragment (human, UniProt P16410 36-161); experiment: flow cytometry; inhibition of CTLA4-ECD_Fc binding to Raji cells (hB7-1/hB7-2)
# T2 construct: extracellular domain; not shown: Fc fragment
# T2 sequence (P16410 36-161): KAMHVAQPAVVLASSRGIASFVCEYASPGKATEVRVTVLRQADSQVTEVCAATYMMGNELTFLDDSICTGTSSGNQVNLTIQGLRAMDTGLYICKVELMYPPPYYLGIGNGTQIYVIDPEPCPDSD
# Description: In a first assay, inhibition of hCTLA4 binding to hB7-1 and hB7-2 expressed on the surface of Raji cells was assessed. Raji cells, which are human cells, express high levels of hB7-1 and hB7-2. […] After 30 minutes, 1×10⁵ Raji cells were added to each well and incubated for another 30 minutes. […] IC₅₀'s were calculated using GraphPad Prism software (GraphPad, Inc., La Jolla, Calif., USA).
# [3] = biological target: T1, human CTLA4 expressed on Jurkat T cells; experiment: cell-based or functional assay
# [4] = biological target: T3, human PD1 expressed on a cell surface (human, UniProt Q15116 25-288); experiment: cell-based or functional assay
# T3 sequence (Q15116 25-288): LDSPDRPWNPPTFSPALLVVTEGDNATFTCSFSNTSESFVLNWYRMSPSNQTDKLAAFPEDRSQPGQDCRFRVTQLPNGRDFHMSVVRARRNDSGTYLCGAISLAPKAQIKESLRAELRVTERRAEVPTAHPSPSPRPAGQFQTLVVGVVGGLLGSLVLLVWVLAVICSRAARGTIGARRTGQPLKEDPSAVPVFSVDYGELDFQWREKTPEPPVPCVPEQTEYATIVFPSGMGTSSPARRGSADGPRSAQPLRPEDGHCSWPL
# [5] = biological target: T3, human PD1 expressed on a cell surface; experiment: flow cytometry on OKT3-activated human T cells, CD4- cells
# Description: (§1) The following experiment tested whether the selected anti-hPD1 antibodies can bind to native PD1 expressed on the surface of activated T cells. Human PBMCs were pre-activated with OKT3 (an anti-CD3 antibody) at a concentration of 1 μg/ml. After three days, the PBMCs, which were mostly activated T cells at this time, were distributed into a 96 well microtiter plate using 0.1×10⁶ cells/well. […] The antibody bound to CD4⁺ T cells and CD4⁻ T cells (which were predominately CD8⁺ T cells) was detected using anti-hlgG-FITC and an anti-CD4 antibody labeled with allophycocyanin (anti-CD4-APC).
# (§2) The samples were analyzed by flow cytometry (FACScalibur, BD), and binding was reported as an MFI. EC₅₀'s for binding were calculated using GraphPad Prism software.
# [6] = biological target: T3, human PD1 expressed on a cell surface; experiment: flow cytometry on OKT3-activated human T cells, CD4+ cells
# Description: as §1, §2
# T1 sequence (P16410 36-223): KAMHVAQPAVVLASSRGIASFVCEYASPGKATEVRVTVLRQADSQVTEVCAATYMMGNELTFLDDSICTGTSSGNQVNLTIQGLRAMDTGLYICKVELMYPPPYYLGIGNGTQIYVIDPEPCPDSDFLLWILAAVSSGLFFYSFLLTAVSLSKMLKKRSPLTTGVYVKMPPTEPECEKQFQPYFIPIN
EC50 [1],IC50 [2],"IC50, luciferase (RLU), CTLA4 Dual-Cell Reporter Assay (Jurkat cells with hCTLA4 plus Raji cells) [3]","IC50, luciferase (RLU), PD1 dual cell reporter assay (Jurkat cells with hPD1 plus CHO-K1 cells with hPDL1) [4]",EC50 [5],EC50 [6],Binder
0.437 nM,14.1 nM,30 nM,,,,"anti-hCTLA4 antibody 6E3 (antibody, human IgG1, V domains shown) VH: QVQLVESGGGVVEPGRSLRLSCAASGFTFSSYGMHWVRQAPGKGLEWVAVIWYKTSEKDYADSAKGRFTISRDNSKNTLYLQMNSLRAEDTAVYYCARAGLLGYFDYWGQGTLVTVSS VL: EIVLTQSPGTLSLSPGERATLSCRASQSVTSYLAWYQQKPGQAPRPLIYGVSSRATGIPDRFSGSGSGTDFTLTISRLEPEDFAVYYCQQYGMSPFTFGPGTKVDIK"
0.15 nM,3.5 nM,13.9 nM,,,,"anti-hCTLA4 antibody 12G4 (antibody, human IgG1, V domains shown) VH: QVQLVESGGGVVEPGRSLRLSCAASGFTFSSYGMHWVRQAPGKGLEWVAVIWYNTSKKDYADSAKGRFTISRDNSKNTLYLQMNSLRAEDTAVYYCARGGLLGYFDYWGQGTLVTVSS VL: EIVLTQSPGTLSLSPGERATLSCRASQSITSYLAWYQQKPGQAPRPLIYGVSSRATGIPDRFSGSGSGTDFTLTISRLEPEDFAVYYCQQYGRYPFTFGPGTKVDIK"
2.93 nM,11.5 nM,> 340 nM,,,,"anti-hCTLA4 antibody 5B2 (antibody, human IgG1, V domains shown) VH: QVQLVESGGGVVEPGRSLRLSCTASGFTFSSYGMHWVRQAPGKGLEWVAVIWYKSSEKDYADSAKGRFTISRDNSKNTLYLQMNSLRAEDTAVYYCARAGLLGYFDYWGQGTLVTVSS VL: EIVLTQSPGTLSLSPGERATLSCRASQSLSSYLAWYQQKPGQAPRLLIYGVSSRATGIPDRFSGSGSGTDFTLTISRLEPEDFAVYYCQQYGMYPFTFGPGTKVDIK"
0.697 nM,6.3 nM,28.2 nM,,,,"anti-hCTLA4 antibody 1E1 (antibody, human IgG1, V domains shown) VH: QVQLVESGGGVVEPGRSLRLSCAASGFTFSSYGMHWVRQAPGKGLEWVAVIWYNPSEKDYADSAKGRFTISRDNSKNTLYLQMNSLRAEDTAVYYCARAGLLGYFDYWGQGTLVTVSS VL: EIVLTQSPGTLSLSPGERATLSCRASQSISSYLAWYQQKPGQAPRPLIYGVSSRATGIPDRFSGSGSGTDFTLTISRLEPEDFAVYYCQQYGMSPFTFGPGTKVDIK"
0.473 nM,15.7 nM,25.3 nM,,,,"anti-hCTLA4 antibody 9C4 (antibody, human IgG1, V domains shown) VH: QVQLVESGGGVVEPGRSLRLSCAASGFTFSSYGMHWVRQAPGKGLEWVAVIWYKSSEKDYADSAKGRFTISRDNSKNTLYLQMNSLRAEDTAVYYCARAGLLGYFDYWGQGTLVTVSS VL: EIVLTQSPGTLSLSPGERATLSCRASQSLNSYLAWYQQKPGQAPRPLIYGVSSRATGIPDRFSGSGSGTDFTLTISRLEPEDFAVYYCQQYGIYPFTFGPGTKVDIK"
,,,3 nM,1.12 nM,0.974 nM,"anti-hPD1 antibody #5 (antibody, human IgG4, V domains shown, also called Anti-hPD1 #5; Anti-PD1 #5) VH: QVQLVQSGAEVKKPGASVKVSCKASGYTFTNYWMHWVRQAPGQGLEWMGEIDPFDSYTNYNQKFKGRVTMTRDKSTSTVYMELSSLRSEDTAVYYCARPGFTYGGMDFWGQGTLVTVSS VL: DIQMTQSPSSLSASVGDRVTITCRSSQSLLNSGNQKNYLAWYQQKPGKLPKLLIYGASTRDSGVPSRFSGSGSGTDFTLTISSLQAEDVATYYCQNDHYYPYTFGGGTKVEIK"
,,,2.45 nM,0.416 nM,0.398 nM,"anti-hPD1 antibody #2 (antibody, human IgG4, V domains shown, also called Anti-hPD1 #2; Anti-PD1 #2) VH: QVQLVQSGAEVKKPGASVKVSCKASGYTFTSYWMHWVRQAPGQGLEWMGEIDPYDSYTNYNQKFKGRVTMTVDKSTSTVYMELSSLRSEDTAVYYCARPGNTYGGMDYWGQGTLVTVSS VL: DIQMTQSPSSLSASVGDRVTITCRSSQSLFNSGNQKNYLAWYQQKPGKVPKLLIYGASTRDSGVPYRFSGSGSGTDFTLTISSLQPEDVATYYCQNDHYYPYTFGGGTKVEIK"

# The next lines start with the binder.
Binder,EC50 [1],IC50 [2],"IC50, luciferase (RLU), CTLA4 Dual-Cell Reporter Assay (Jurkat cells with hCTLA4 plus Raji cells) [3]","IC50, luciferase (RLU), PD1 dual cell reporter assay (Jurkat cells with hPD1 plus CHO-K1 cells with hPDL1) [4]",EC50 [5],EC50 [6]
"anti-hCTLA4 antibody 2F1 (antibody, human IgG1, V domains shown) VH: QVQLVESGGGVVEPGRSLRLSCAASGFTFSSYGMHWVRQAPGKGLEWVAVIWYHRSEKDYADSAKGRFTISRDNSKNTLYLQMNSLRAEDTAVYYCARAGLLGYFDYWGQGTLVTVSS VL: EIVLTQSPGTLSLSPGERATLSCRASQSINSYLAWYQQKPGQAPRPLIYGVSSRATGIPDRFSGSGSGTDFTLTISRLEPEDFAVYYCQQYGMYPFTFGPGTKVDIK",0.276 nM,9.1 nM,20.5 nM,,,
"anti-hCTLA4 antibody 7A4 (antibody, human IgG1, V domains shown) VH: QVQLVESGGGVVEPGRSLRLSCTASGFTFSSYGMHWVRQAPGKGLEWVAVIWYQTSEKDYADSAKGRFTISRDNSKNTLYLQMNSLRAEDTAVYYCARAGLLGYFDYWGQGTLVTVSS VL: EIVLTQSPGTLSLSPGERATLSCRASQSVSSYLAWYQQKPGQAPRPLIYGVSSRATGIPDRFSGSGSGTDFTLTISRLEPEDFAVYYCQQYGMYPFTFGPGTKVDIK",0.217 nM,19.8 nM,10.9 nM,,,
"anti-hCTLA4 antibody 8B4 (antibody, human IgG1, V domains shown) VH: QVQLVESGGGVVEPGRSLRLSCAASGFTFSSYGMHWVRQAPGKGLEWVAVIWYQPSEKDYADSAKGRFTISRDNSKNTLYLQMNSLRAEDTAVYYCARAGFLGYFDYWGQGTLVTVSS VL: EIVLTQSPGTLSLSPGERATLSCRASQSVNSYLAWYQQKPGQAPRPLIYGVSSRATGIPDRFSGSGSGTDFTLTISRLEPEDFAVYYCQQYGMYPFTFGPGTKVDIK",0.384 nM,3.8 nM,19 nM,,,
"anti-hCTLA4 antibody 4H1 (antibody, human IgG1, V domains shown) VH: QVQLVESGGGVVEPGRSLRLSCTASGFTFSSYGMHWVRQAPGKGLEWVAVIWYNPSKKDYADSAKGRFTISRDNSKNTLYLQMNSLRAEDTAVYYCARGGLFGYFDYWGQGTLVTVSS VL: EIVLTQSPGTLSLSPGERATLSCRASQSVSSYLAWYQQKPGQAPRPLIYGVSSRATGIPDRFSGSGSGTDFTLTISRLEPEDFAVYYCQQYGMYPFTFGPGTKVDIK",0.189 nM,8.2 nM,73.8 nM,,,
"anti-hCTLA4 antibody 3G1 (antibody, human IgG1, V domains shown) VH: QVQLVESGGGVVEPGRSLRLSCTASGFTFSSYGMHWVRQAPGKGLEWVAVIWYKSSEKYYADSAKGRFTISRDNSKNTLYLQMNSLRAEDTAVYYCARGGLLGYFDYWGQGTLVTVSS VL: EIVLTQSPGTLSLSPGERATLSCRASQSINSYLAWYQQKPGQAPRPLIYGVSSRATGIPDRFSGSGSGTDFTLTISRLEPEDFAVYYCQQYGMYPFTFGPGTKVDIK",3.1 nM,3.5 nM,> 340 nM,,,
"anti-hPD1 antibody #6 (antibody, human IgG4, V domains shown, also called Anti-hPD1 #6; Anti-PD1 #6) VH: QVQLVQSGAEVKKPGASVKVSCKASGYTFTNYWIHWVRQAPGQGLEWMGEIDPYDSYTNYNQKFKGRVTMTGDTSTSTVYMELSSLTSEDTAVYYCARPGYTYGGMDFWGQGTLVTVSS VL: DIQMTQSPSSLSASVGDRVTITCRSSQSLFNSGNQKNYLAWYQQKPGKPPKLLIYGASTRESGVPARFSGSGSGTDFTLTISSLQPEDVATYYCQNDHYYPYTFGGGTKVEIK",,,,3.85 nM,0.617 nM,0.667 nM
"anti-hPD1 antibody #14 (antibody, human IgG4, V domains shown, also called Anti-hPD1 #14; Anti-PD1 #14) VH: QVQLVQSGAEVKKPGASVKVSCKASGYTFTNYWIHWVRQAPGQGLEWMGEIDPYDSYTNYNQKFKGRVTMTGDKSTSTVYMELSSLTSEDTAVYYCARPGYTYGGMDFWGQGTLVTVSS VL: DIQMTQSPSSLSASVGDRVTITCKSSQSLFNSGNQKNYLAWYQQKPGKLPKLLIYGASTRDSGVPSRFSGSGSGTDFTLTISSLQPEDVATYYCQNDHYYPYTFGGGTKVEIK",,,,2.69 nM,0.449 nM,0.39 nM
